Legend:
[1] = Enzyme activity of crude enzyme liquid of E. coli expressing NmGT0 to NmGT9 on apigenin (HPLC); type: biochemical, Nemophila menziesii; conditions: 80 μl crude enzyme liquid, UDP-glucose, 1 hour at 30° C., HPLC 330 nm
Procedure: 3 μg aliquots of each of pTOPO-NmGT0 to pTOPO-NmGT9 were treated with their corresponding restrictases followed by recovery of the resulting approximately 1.5 kb DNA fragments. 2 μg of vector pET15b was also treated with restrictase and ligated with the resulting DNA fragments to prepare E. coli expression constructs (pET-NmGT0 to pET-NmGT9).
pET-NmGT0 to pET-NmGT9 were introduced into E. coli strain […] using One Shot BL21 (DE3) (Invitrogen Corp.) in accordance with the protocol recommended by the manufacturer to acquire transformed E. coli. This E. coli was then cultured using the Overnight Express Autoinduction System 1 (Novagen Inc.) in accordance with the protocol recommended by the manufacturer. The transformed E. coli were cultured at 37° C. to an OD600 value of 0.5 in 2 ml of the prepared culture liquid (approx. 4 hours). This E. coli culture liquid was then used as a pre-culture liquid and added to 50 ml of culture liquid followed by final culturing overnight at 27° C. […]
A reaction liquid prepared by mixing 80 μl of crude enzyme liquid, 20 μl of 5 mM UDP-glucose, 20 μl of 1 M Tris HCl (pH 7.5) and 1 μl of 500 ng/μl apigenin on ice and bringing to a volume of 200 μl with water was held for 1 hour at 30° C. […] The Shimadzu PDA SPD-M10AVP was used for the detector and flavone was detected at 330 nm. […]

[2] = tested on: rose (Noblesse, Ritapa Humera); test: Flower petal pigment analysis of recombinant rose introduced with NmGT8; type: in vivo
Source text: Binary vectors pSPB4577, pSBP4578, pSBP5437 and pSBP5440 for expressing NmGT8 were constructed and introduced into rose (Noblesse, Ritapa Humera). […] Details of the introduced constructs are described below (see FIG. 21).
pBINPLUS was used for the basic skeleton of pSPB5477, and three expression cassettes were contained therein (consisting of 1: EI235S promoter, full-length cDNA pansy F3′5′H and mas terminator; 2: EI235S promoter, full-length cDNA torenia flavone synthase and mas terminator; and, 3: EI235S promoter, full-length cDNA NmGT8 and mas terminator).
pBINPLUS was used for the basic skeleton of pSPB4578, and three expression cassettes were contained therein (consisting of 1: perilla anthocyanin 3-acyltransferase promoter (described in PCT/JP2010/053909), full-length cDNA pansy F3′5′H and mas terminator; 2: EI235S promoter, full-length cDNA torenia flavone synthase and mas terminator; and, 3: EI235S promoter, full-length cDNA NmGT8 and mas terminator). […]
Pigments in the flower petals were analyzed for full-length cDNA torenia flavone synthase and full-length cDNA NmGT8 in those strains in which transcription products were confirmed. […] The flower petal extract was analyzed by high-performance liquid chromatography (Prominence (Shimadzu Corp.)). […] Non-recombinant rose not introduced with the genes was analyzed in the same manner as a control (FIG. 22). Flower petal extract diluted 50-fold was also analyzed with a high-performance liquid chromatograph (Shimadzu Corp.). The Shimadzu LCMS-IF-TOF was used for the detector and flavones were detected at […] ([Api-Glc+H]) and […] ([Lut-Glc+H]). […]

[3] = recombinant rose flower petal extract, LC-MS

B1: NmGT8: nemophila glycosyltransferase (SEQ ID NO: 1/2) having activity that transfers a sugar to the hydroxyl group at the 4′-position of a flavone (protein, listed as Nemophila menziesii)
chain: MEKKTIILYPSPGIGHLVSMVELAKLILNREPSYSIIIFISSAPYSTGSSAPYISHVSATTSGISFHHLPVLVLPPNTFSSFEEIAYKIPQLNNPNLKLALQTISKESSDLKAFIIDFFCTAAVEVSSNLEIPTYFFFTSGSSAMCQFLYLPTLHETITQKDLQDPNTYVHIPGIPPIHSLDLPKVLSNRSTVLYKELINTANQMAKCSGILINAFETLEPKAVKALKEGLCTPGMPTPPVYCIGPLIASGDKGNVNDAHGHEILTWLNSQPSKSVVFLCFGSLGTFKEDQLKEIAIGLENSGHRFLWVMKSPPIDDKTKRFLPPPEPDFNVLLPEGFLERTKERGVIVKSWAPQLAILNHDAIGGFVTHCGWNSVLEAICGGVPMLAWPLYAEQRVNRVCMVEEMKVALPLEESVDGFVMASEIEKRVKELVDYESSEAIRDQVKIMSEKAKTAVAVSGSSHDALTKLLDGWK
Q: With B1 as the molecule, how does the “HPLC peak other than substrate” value [1] read?
A: The value was “a peak other than that of the substrate was observed”.

Q: And the “flavone 4′-glucoside share of the biosynthesized flavones” value [2, 3]?
A: Its value is 97.0%.

Q: And the “flavone 7-glucoside share of the biosynthesized flavones” value [2, 3]?
A: The value was 3.0%.

Q: And the “flavones detected in flower petals” value ([2]; recombinant rose introduced with flavone synthase and NmGT8, HPLC)?
A: The value was “apigenin 4′-glucoside and luteolin 4′-glucoside were detected”.

Source: patent publication US10059956B2, “Glycosyltransferase gene and use thereof” (SUNTORY HOLDINGS LIMITED, priority 2012, dated 2018)
